# “And” between values parts separate entries of the source, which are not always exact repeats. Identical values can stand only once.
# B1: Azurin wild type, P00282 (protein)
# chain: MLRKLAAVSLLSLLSAPLLAAECSVDIQGNDQMQFNTNAITVDKSCKQFTVNLSHPGNLPKNVMGHNWVLSTAADMQGVVTDGMASGLDKDYLKPDDSRVIAHTKLIGSGEKDSVTFDVSKLKEGEQYMFFCTFPGHSALMKGTLTLK
# Details: Pseudomonas aeruginosa (strain ATCC 15692 / DSM 22644 / CIP 104116 / JCM 14847 / LMG 12228 / 1C / PRS 101 / PAO1); pH 7; 25 °C; GdnHCl; Fluorescence; Tris-HCl 100 mM; reversible: Yes; whole UniProt chain shown
protein,measurement,value
B1,unfolding free energy,5.98 kcal/mol and 12.9 kcal/mol

# — FireProtDB (doi:10.1110/ps.051838206)
